Where two headings read alike, the source gives them in different places.
Key:
[1] = target: S. pombe ubiquitin with an N-terminal 6xhistidine-tag, TEV-cleavage site and an N-terminal free cysteine (S. pombe) (UniProt P0CG72); assay: NMR titration; 100 µM 15N-ubiquitin, unlabelled peptide or protein added or titrated (peptides to 1 mM, WT Dss1 peptide to 5 mM); 20 mM NaH2PO4, 150 mM NaCl, 5 mM TCEP, pH 7.5; CSPs of 1H-15N-HSQC, global fit to a one-site model
[2] = target: SUMO (Homo sapiens) (UniProt P63165); details: cited from earlier work
SUMO (Homo sapiens), sequence (P63165 2-97): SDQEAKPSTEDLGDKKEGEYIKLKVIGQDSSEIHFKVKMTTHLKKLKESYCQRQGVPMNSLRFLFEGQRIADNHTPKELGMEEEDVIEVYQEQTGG

[3] = target: SUMO (Homo sapiens) (UniProt P63165); details: cited from earlier work; remark: listed apart in the source
[4] = target: ubiquitin (UniProt P0CG48); details: cited from earlier work
[5] = target: ubiquitin (UniProt P0CG48); details: cited from earlier work; remark: listed apart in the source

Vps27 UIM, sequence (P40343 258-277): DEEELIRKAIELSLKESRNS
RABEX5 UIM, sequence (Q9UJ41 48-74): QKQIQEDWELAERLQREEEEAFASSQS

Dss1 DMD (from UniProt O14140 1-71) (natural protein)
Kd [1]: 25 µM

Dss1 DWD (from UniProt O14140 1-71) (natural protein)
Kd [1]: 300 µM

PIASX (from UniProt O75928)
Kd [2]: 1000 nM

PML-P (from UniProt P29590)
Kd [3]: 100 µM

RABEX5 UIM (from UniProt Q9UJ41)
Kd [4]: 100 µM

Spd1 peptide (15-mer with the DisUBM of S. pombe Spd1)
Kd [1]: 3100 µM

Vps27 UIM (from UniProt P40343)
Kd [5]: 20 µM
